Assay results published in the Immune Epitope Database (IEDB).

What follows are sequences tested against HLA-B*07:02 (assay: IEDB peptide-MHC binding, purified MHC/competitive/fluorescence; ≥ and ≤ were set here for values at or beyond the usual limits of such assays). Conditions: source organism: Homo sapiens.
In the case of RPYSNVSNL, the IC50 is reported as 228 nM. With LPTSHPKIV the IC50 was 3560 nM. For NPNQNKNVAL, the IC50 was 1580 nM. IATVDSYVI gave an IC50 of no less than 219000 nM. TPQSNRPVM gave an IC50 of 466 nM. In the case of APAYSRAL, the IC50 is reported as 215 nM. With APKRPPSAF the IC50 was 176 nM. Work on SPNQARAQAAL yielded an IC50 of 926 nM. Work on STTAICATGL yielded an IC50 of no less than 248000 nM. AARPATSTL was tested, and the IC50 was 210 nM. GPRTAALGLL gave an IC50 of 258 nM.
